Data published in patent US20120094280.

Experiments:
[1] = molecular target: M.SssI DNA cytosine-C5 methyltransferase (Spiroplasma sp.?) (UniProt P15840); conditions: formaldehyde; GCGC site resistant to R.Hin6I
[2] = molecular target: T1, M.HpaII DNA cytosine-C5 methyltransferase (UniProt P15446); conditions: formaldehyde; CCGG sites resistant to R.HpaII
T1 sequence: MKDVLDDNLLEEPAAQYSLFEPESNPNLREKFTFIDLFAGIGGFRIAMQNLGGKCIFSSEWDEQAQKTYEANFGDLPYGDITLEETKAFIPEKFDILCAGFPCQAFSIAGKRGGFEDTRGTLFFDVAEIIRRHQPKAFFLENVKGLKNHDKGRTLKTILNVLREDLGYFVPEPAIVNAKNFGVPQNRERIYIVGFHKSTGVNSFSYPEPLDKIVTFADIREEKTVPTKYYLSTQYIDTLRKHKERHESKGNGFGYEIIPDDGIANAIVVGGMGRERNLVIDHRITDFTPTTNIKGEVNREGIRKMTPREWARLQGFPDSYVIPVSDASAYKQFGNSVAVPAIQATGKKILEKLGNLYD

Sequence of M.SssI DNA cytosine-C5 methyltransferase (Spiroplasma sp.?) (P15840 whole entry): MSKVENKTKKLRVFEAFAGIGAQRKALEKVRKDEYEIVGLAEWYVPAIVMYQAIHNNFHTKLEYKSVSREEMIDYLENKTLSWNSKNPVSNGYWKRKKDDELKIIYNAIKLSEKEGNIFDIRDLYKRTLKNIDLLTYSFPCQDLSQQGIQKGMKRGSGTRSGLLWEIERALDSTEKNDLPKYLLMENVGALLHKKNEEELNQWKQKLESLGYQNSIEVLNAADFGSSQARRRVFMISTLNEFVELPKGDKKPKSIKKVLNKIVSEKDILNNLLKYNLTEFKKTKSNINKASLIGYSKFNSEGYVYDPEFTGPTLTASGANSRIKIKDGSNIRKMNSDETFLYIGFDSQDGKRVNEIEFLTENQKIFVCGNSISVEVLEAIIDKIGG

## pUC-618 PCR fragment (618 bp)
[1]
  activity: 70%
[2]
  activity: 70%
